According to patent US20160251444A1:

Experiments:
[1] = target: CD20 on human cells (Daudi cells, B cells in PBMCs) (human) (UniProt P11836); assay: cell-based or functional assay
[2] = target: Soluble single-chain human neonatal Fc receptor (scFcRn) (human) (UniProt P55899); assay: SPR (Biacore X), scFcRn immobilized on CM5 chip, pH 6.0, two-state model; Run 1
[3] = target: Soluble single-chain human neonatal Fc receptor (scFcRn) (human) (UniProt P55899); assay: SPR (Biacore X), scFcRn immobilized on CM5 chip, pH 6.0, two-state model; Run 2
[4] = target: Soluble single-chain human neonatal Fc receptor (scFcRn) (human) (UniProt P55899); assay: SPR (Biacore X), scFcRn immobilized on CM5 chip, pH 6.0, two-state model; Run 3
[5] = target: Soluble single-chain human neonatal Fc receptor (scFcRn) (human) (UniProt P55899); assay: SPR (Biacore X), scFcRn immobilized on CM5 chip, pH 6.0, two-state model; mean of 3 runs
[6] = target: CD22 on human cells (B cells in PBMCs, Daudi, D1-1) (human) (UniProt P20273); assay: cell-based or functional assay

Chain of Soluble single-chain human neonatal Fc receptor (scFcRn) (human) (P55899 24-297 limits assumed, chain 1 of 2): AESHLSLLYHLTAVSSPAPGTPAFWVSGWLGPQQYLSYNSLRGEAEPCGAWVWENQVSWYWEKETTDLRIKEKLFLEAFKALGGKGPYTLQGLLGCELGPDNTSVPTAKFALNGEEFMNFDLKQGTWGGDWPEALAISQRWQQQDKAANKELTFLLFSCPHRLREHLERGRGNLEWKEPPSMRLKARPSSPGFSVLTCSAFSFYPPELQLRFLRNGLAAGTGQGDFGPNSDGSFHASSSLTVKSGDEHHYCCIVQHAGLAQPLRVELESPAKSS
Chain of Soluble single-chain human neonatal Fc receptor (scFcRn) (human) (P61769 21-119 limits assumed, chain 2 of 2, further chain): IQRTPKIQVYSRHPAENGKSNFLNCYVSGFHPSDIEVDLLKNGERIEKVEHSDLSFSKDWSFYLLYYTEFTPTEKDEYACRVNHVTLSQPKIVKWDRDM
Chain of CD20 on human cells (Daudi cells, B cells in PBMCs) (human) (P11836 whole entry): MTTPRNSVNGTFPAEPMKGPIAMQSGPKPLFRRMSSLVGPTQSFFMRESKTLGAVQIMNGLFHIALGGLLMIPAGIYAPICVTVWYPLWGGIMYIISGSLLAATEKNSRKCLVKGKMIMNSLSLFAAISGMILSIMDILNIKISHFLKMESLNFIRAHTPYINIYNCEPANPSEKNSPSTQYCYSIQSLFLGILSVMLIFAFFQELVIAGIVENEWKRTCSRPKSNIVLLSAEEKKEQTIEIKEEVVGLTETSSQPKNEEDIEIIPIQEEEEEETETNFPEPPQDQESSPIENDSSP

20*-2b (Ck-IgG-IFNα: veltuzumab with four IFNα2b fused at the light chains) (from UniProt P01563 24-188)
in vitro cytotoxicity in Daudi cells (MTS assay), EC50 [1]: 0.0002 nM

20-2b (Fc-IgG-IFNα: veltuzumab with four IFNα2b fused at the heavy chains) (from UniProt P01563 24-188)
in vitro cytotoxicity in Daudi cells (MTS assay), EC50 [1]: 0.0002 nM

Epratuzumab (humanized anti-CD22 IgG1) (antibody)
Kd [2]: 15 nM
Kd [3]: 17.9 nM
Kd [4]: 15.8 nM
Kd [5]: 16.3 nM

B1: F(ab')2 fragment of epratuzumab (protein, INN chains, looked up)
VH: QVQLVQSGAEVKKPGSSVKVSCKASGYTFTSYWLHWVRQAPGQGLEWIGYINPRNDYTEYNQNFKDKATITADESTNTAYMELSSLRSEDTAFYFCARRDITTFYWGQGTTVTVSS
VL: DIQLTQSPSSLSASVGDRVTMSCKSSQSVLYSANHKNYLAWYQQKPGKAPKLLIYWASTRESGVPSRFSGSGSGTDFTFTISSLQPEDIATYYCHQYLSSWTFGGGTKLEIK
modifications: F(ab')2
surface CD22 on B cells of PBMCs after treatment, % of isotype control MFI (flow cytometry) [6]: 45 % control
